This is an account of results in paper PMC3664939, “Structure of the Catalytic Region of DNA Ligase IV in Complex with an Artemis Fragment Sheds Light on Double-Strand Break Repair” (Structure(London, England:1993), 2013).

The target in this test is T1, DNA ligase IV catalytic region (residues 1–609) (human, UniProt P49917 1-609).
T1 construct: Cloned in pOPINS; whether the His6-Sumo tag was removed is told only in the Supplemental Experimental Procedures; the derivative crystals carry nine mercury atoms from thiomersal; the methods point to the recombinant construct for the crystals; also called catalytic region of LigIV
T1 sequence (looked up): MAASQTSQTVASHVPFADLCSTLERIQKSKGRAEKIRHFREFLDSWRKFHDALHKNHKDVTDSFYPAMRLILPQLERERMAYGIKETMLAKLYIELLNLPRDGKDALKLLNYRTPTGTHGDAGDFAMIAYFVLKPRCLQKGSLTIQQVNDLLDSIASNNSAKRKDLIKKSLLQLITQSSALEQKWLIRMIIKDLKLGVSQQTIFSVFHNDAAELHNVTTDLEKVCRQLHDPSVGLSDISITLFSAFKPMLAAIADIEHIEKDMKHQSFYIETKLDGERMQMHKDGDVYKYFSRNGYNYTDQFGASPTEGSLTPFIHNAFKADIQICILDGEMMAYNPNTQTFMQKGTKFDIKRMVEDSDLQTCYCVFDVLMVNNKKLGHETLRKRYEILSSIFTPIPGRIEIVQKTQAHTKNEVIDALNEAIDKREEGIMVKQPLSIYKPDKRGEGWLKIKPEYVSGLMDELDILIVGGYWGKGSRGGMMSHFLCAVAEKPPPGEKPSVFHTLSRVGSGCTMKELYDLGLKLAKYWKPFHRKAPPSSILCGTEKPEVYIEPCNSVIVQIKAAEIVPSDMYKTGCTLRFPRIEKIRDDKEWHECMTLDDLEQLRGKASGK
Kind of test: crystal structure; vapor diffusion, 100 mM MES (pH 5.6–5.7), 2.0 M (NH4)2SO4, 10 mM YCl3; native crystals and crystals soaked in 1 mM thiomersal. The following applies: both partners purified.

B1: Artemis peptide (residues 485–495) (peptide, UniProt Q96SD1 485-495, looked up)
peptide: DVPQWEVFFKR
notes: holds P487, W489, F492 and F493; also called Artemis fragment; source: synthetic peptide (PNAC facility, Department of Biochemistry, University of Cambridge)
As to B1, the binding result was “binds”.
